The data set is described as follows: yeast display, Sf9 membrane polyspecificity reagent, FACS + sequencing; frameworks hold sequencing errors. The essentials: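 Nanobodies from a synthetic yeast display library (Saccharomyces cerevisiae BJ5465), induced 36–48 hours with galactose, were stained 1 hour at 4 °C with 10% biotinylated, detergent-solubilized Sf9 membrane reagent, enriched on streptavidin microbeads, then FACS-sorted. Anti-HA (expression) and streptavidin (reagent binding) fluorescence set low and high (top ~1%) gates. Polyreactivity labels come from the gate of origin. Genes were colony-PCR amplified, MiSeq 2 × 250 sequenced and filtered by CDR length.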
On to “QVQLVESGGGLVQAGGSLRLSCAASGRIFKRNTMGWYRQAPGKERELVAAITYSGITYYADSVKGRFTISRDNAKNTVYLQMNSLKPEDTAVYYCAKVLYPIGSPRFEYWGQGTQVTVSS”, for which the “polyreactivity (PSR sort gate)” value is “low polyreactivity”.

Consider “QVQLVESGGGLVQAGGSLRLSCAASGFTFRANAMGWYRQAPGKERELFATISRGGPTNYADSVKGRFTISRDNAKNTVYLQMNSLKPADTAVYYCAASFSPYHTDRGDYWGQGTQVTVSS”, for which the “polyreactivity (PSR sort gate)” value is listed as “high polyreactivity”.

For the sequence “QVQLVESGGGLVQARGSLRLSCAASGFNFRSYAMASYRQAPGKERELVAAINSRAGNTYYADSVKGRFTISRDNSKNTVYLQMNSLKPEDTAVYYCNAVRHTYGYYSCGQGTQVTVSS”, the “polyreactivity (PSR sort gate)” value is on record as “high polyreactivity”.

As to “QVQLVESGGGLVQAGGSLLLSSAASGFTFGNNDMGWYRKSHGKERELVDAITKRGSSTYYADSVKGRFTISRDNAKNTVYLQMNSLKPEDTAVYHCAASWLGASGIRYDYWGQGTLVTVSS”, the “polyreactivity (PSR sort gate)” value is on record as “high polyreactivity”.

With “QVQLVESGGGLVQAGGSLRLSGAASGSTFGWYVMGWYRQAPGKERELVASITGSGGSTYYADSVKGRFTISRDHAKNTVYLQMNSLNPEDTAVYYCAAHTGWYDDWTHDSWGQGTQVTVSS”, the “polyreactivity (PSR sort gate)” value was “low polyreactivity”.

In the case of “QVQLVESGGGLVQAGGSLRLSCAASGSTFGSNAMGWYRPAPGKERELVAAITYSGGRTYYADSVKGRFTISRDNAKNTVYLQMNSLKPEDTAVYYCAATFGFFYYQYDYWGQGTQVTVSS”, the “polyreactivity (PSR sort gate)” value was “low polyreactivity”.

For “QVKLVESGGGLVQAGGSLRLSCAASGRIFSYNAMGGYRPEPGKESEVVAAMSDGGGRTYYADSVKGRFTISRDNAKNTVYVQMNSLKPEDTAVYYCAARYSVYYFGQRNGRYGYWGQGTQVTVSS”, the “polyreactivity (PSR sort gate)” value is reported as “high polyreactivity”.

Regarding “QVQHVESGGGLVQAGGSLRLSCADSGSTFWFNAMGWYRQAHGKERELVAAIDWSDGSTYYADSVKGRFTISRDNAKNTVYLQMNSLKPEDTAVYYCAADHRYSARRSVPTLYDYWGQGTHVTVSS”, the “polyreactivity (PSR sort gate)” value is “low polyreactivity”.

As for “QVQIVESGGGLVQEGGSLRISCAASGFTFTANAMGWYRQAPGKERELVAAITRNGGRTYYADSVKGRFTISRDNAKNTVYFQMNSLKPEDTAVYYCAKPTSQRIHDDYDYWGQGTQVTVSS”, the “polyreactivity (PSR sort gate)” value is reported as “high polyreactivity”.

As to “QVQLVESGGGLVQAGGSLRLSCAASGSIFRGYVRGWYRQAPGKERELVAAITWSTGSTYYADSVKGRFTISRDNAKNTVYLQMNSLKPEDTAVYYCAAVRRWAANRYQSGVTGNYWGQGTKVTVSS”, the “polyreactivity (PSR sort gate)” value is “high polyreactivity”.

As to “QVQLVESAGGLVQAGVSLRLSCAASGFTFGWYAMGWYRQAPGKERELVATISWSGSSTYYADSVKGRFTISRDNAKNTVYVQMNSLKPDDTAVYYCNAVYGRFVVLRYDYWGQGTQVTVSS”, the “polyreactivity (PSR sort gate)” value is “high polyreactivity”.

For the sequence “QVQLVESGGGLVQAGGSLRLSCSASGSTYYNAMGWYRQAPGKERQLVAAIRFRSGSTYYADSVKGRFTISRDNAKNTVYLQMNSLKPEDTAVYYCAADNKRSWRYAYTYWGQGTQVTVSS”, the “polyreactivity (PSR sort gate)” value is given as “high polyreactivity”.

Regarding “QVQLVESGGGLVQAGGSLRLSCAASGFTFRWNAMGWYRQAPGKERELVAAITNDDSTYYADSVKGRFTISRDNAKNTVYLQMNSLKPEDTAVYYCNARYGRYLDLDTGVALAGRGYWGQGTQVSVSS”, the “polyreactivity (PSR sort gate)” value is “low polyreactivity”.

On to “QVQHVESGGGLVQAGGSLRLSCAASGLNLYSNAMGCYRQAPGNERELVAAISWIGASTYYADSVKGRFTISRDNAKNTVYLQMNSLKQEDTAVYYCATARYRGYPTYSYARDYCGQGTQVTVSS”, for which the “polyreactivity (PSR sort gate)” value was “high polyreactivity”.

Take “QVQLVESGGGLVQAGGSLLLSCAASGSTFGYNTMGWYRQAPGKERELVAAINYSGGRTYYADSVKGRFTISRDYAMNTVYLQMNSQKPEDTAVYYCNALSYPSRVYDAYDYWGQGTQVTVSS”: the “polyreactivity (PSR sort gate)” value is “high polyreactivity”.

On to “QVQLVESGGGLVQAGGSLRLSCAASGLTFGNYAMGWYRQTPGKERELVAAISKRGGTTYYADSVKGRFTISRDTAKNTVYLQMNSLKPEDTAVYYCSARDYSHPTDDNYWGPGTQVTVSS”, for which the “polyreactivity (PSR sort gate)” value is reported as “high polyreactivity”.

In the case of “QVQLVESGGGLVQAGGSLRLSSAASGRTFIVYAMGWYRQQPGKERELVARISSGSRTSYADSVKGRFTISRDNAKNTVYLQMNSLKPEDTAVYYCAKSRVIKYEFDYWGQGTQVTVSS”, the “polyreactivity (PSR sort gate)” value was “low polyreactivity”.

“QVQLVETGGGLVQAGGSLRLSCAASGGIFYPNDMGWYRQAPGKEREFVAAITSSSGSTYADSVKGRFTISRDNAKNTVYLQMNSLKPEDTAVYYCATPPDDKGGGYLGYDYWGQGTQVTVSS”: the “polyreactivity (PSR sort gate)” value is on record as “low polyreactivity”.

In the case of “QVQLVESGGGLVQAGGSLRLSSAASGFNSSRNAMGWYRQAPGKERELVATISSGGDTYYADSVKGRFTISRDNAKNTVYLQMNSLKPEDTAVYYCATDRAERTGYTRYVKTYNYWGQGTQVTVSS”, the “polyreactivity (PSR sort gate)” value is reported as “low polyreactivity”.

In the case of “QVQLVESGGGLVQAGGSLRLSCAASGRTFHRNAMGWYRQAPGKERELVAAITGDGRTNYADSVKGRFTITRDNAKNTVSLQMNSLKPEDTAVYYCFSYDYDYWGQGTQVTVSS”, the “polyreactivity (PSR sort gate)” value is recorded as “low polyreactivity”.

Regarding “QVQLVESGGCLVQAGGRLRLSFAASGLTFEQYAMGWYRQAPGKERELVPAISRRGTSTYYADSVKGRFTISRDNAKNTVFLQMNSLKPEDTAVYYCNAGWWYLGSPFDRDYWGQGTQVTVSS”, the “polyreactivity (PSR sort gate)” value is “high polyreactivity”.

As for “QVQLVESVGGLVQAGGRLRLSCAASGRIFSFYAMGWYRPAPGKEREFVAAITYSGGSSYYADSVKGRFTNSRDNAKKTVYLQMNSLKPEDTAVYYCAARYRYITKYDYWGQGTQVTVSS”, the “polyreactivity (PSR sort gate)” value is reported as “high polyreactivity”.

As for “QVQLVESGGGLVQAGGSLRLSCAASGYISNAMGWYRQAPGKERELVAAISRSGGSTYYADSVKGRFTISRDNAKNTVYLQMNSLKPEDTAVYYCAGDSTYHARRLDYWGQGTQVTVSS”, the “polyreactivity (PSR sort gate)” value is recorded as “low polyreactivity”.

Turning to “QVQLVESGGGLVQAGGSLRLSCAASGSIFNRYAMGWYRQAPGKERELVAVIRWRDGSTYYADSVKGRFTISRDNAKNTVYLQMNSLKPEDTAVYYCAAVYWGEEYEYWGQGTQVTVSS”, the “polyreactivity (PSR sort gate)” value is given as “low polyreactivity”.

In the case of “QVQLVESGGGLVQAVGSLRLSCAASGRTFYRYAMGWYRQAPGKERELVASITRRGGNTYYADSVKGRFTISRDNAKNTVYLQMNSLKPEDTAVYYCAAQSLHPGNWGQGTQVTVSS”, the “polyreactivity (PSR sort gate)” value is “high polyreactivity”.

As for “QVQLVESGGGIVQAGGSLRLSCAASGRNFDVYAMGWYRQAAGKERELVATISSSGVSTSYADSVKGRFTISRDNAKNTVYLQMNSLKPEDSAVYYCARKFLWKGFDYWGQGTQVTVSS”, the “polyreactivity (PSR sort gate)” value was “low polyreactivity”.

Take “QVQLVDSGGGLVQAGGSLRLSCAASGSTFALYAMGWYRQAPGKERELVAAITWSGTGTYYADSVKGRFTISRDNAKNTVYLQMNSLKPEDTAVYSCNAEYWWWGLGNDYWGQGTQVTVSS”: the “polyreactivity (PSR sort gate)” value is given as “low polyreactivity”.

Take “QVQLVESGGGLVQAGGSLRLSCAASGFTFPNYAMGWSRQAPGKERELVAAITSGGGRTNYSDSVKGRFTISRDTAKNTVYLQMNSLKPEDTAVYYCAAEYRYDYRVYSHLHVWRYDYWGQGTQVTVSS”: the “polyreactivity (PSR sort gate)” value is given as “low polyreactivity”.

In the case of “QVQLVESGGGLVQAGGSLRLSCAASGFIFYGYAMGWSRQAPGKERELVAAIRYSGTSTYADSVKGRFTISRDNAKNTVYLQMNSLKPEDTAVFYCAKKYLYYGVPSYKYWGQGTQVTVSS”, the “polyreactivity (PSR sort gate)” value is reported as “high polyreactivity”.

As for “QVQLVESGGGLVQAGGSLRLTCAASGGILYYNAMGWYRQAPGKEREVVAAISRSGITYYADSVKGRFTISRDNAKNTVYLQMNSLKPEDTAVYYSNTVPWRRWGYDYWGQGTQVTVSS”, the “polyreactivity (PSR sort gate)” value is on record as “high polyreactivity”.

(Values after the nanobody polyreactivity screen of Harvey et al. (2022).)
